Substrate: NC(=O)c1ccc[n+]([C@@H]2O[C@H](COP(=O)([O-])OP(=O)(O)OC[C@H]3O[C@@H](n4cnc5c(N)ncnc54)[C@H](O)[C@@H]3O)[C@@H](O)[C@H]2O)c1
Test: Activity at human SIRT1 assessed as ADP-ribosyltransferase activity

B1: NAD-dependent protein deacetylase sirtuin-1 (Homo sapiens), Q96EB6 (protein)
chain: MADEAALALQPGGSPSAAGADREAASSPAGEPLRKRPRRDGPGLERSPGEPGGAAPEREVPAAARGCPGAAAAALWREAEAEAAAAGGEQEAQATAAAGEGDNGPGLQGPSREPPLADNLYDEDDDDEGEEEEEAAAAAIGYRDNLLFGDEIITNGFHSCESDEEDRASHASSSDWTPRPRIGPYTFVQQHLMIGTDPRTILKDLLPETIPPPELDDMTLWQIVINILSEPPKRKKRKDINTIEDAVKLLQECKKIIVLTGAGVSVSCGIPDFRSRDGIYARLAVDFPDLPDPQAMFDIEYFRKDPRPFFKFAKEIYPGQFQPSLCHKFIALSDKEGKLLRNYTQNIDTLEQVAGIQRIIQCHGSFATASCLICKYKVDCEAVRGDIFNQVVPRCPRCPADEPLAIMKPEIVFFGENLPEQFHRAMKYDKDEVDLLIVIGSSLKVRPVALIPSSIPHEVPQILINREPLPHLHFDVELLGDCDVIINELCHRLGGEYAKLCCNPVKLSEITEKPPRTQKELAYLSELPPTPLHVSEDSSSPERTSPPDSSVIVTLLDQAAKSNDDLDVSESKGCMEEKPQEVQTSRNVESIAEQMENPDLKNVGSSTGEKNERTSVAGTVRKCWPNRVAKEQISRRLDGNQYLFLPPNRYIFHGAEVYSDSEDDVLSSSSCGSNSDSGTCQSPSLEEPMEDESEIEEFYNGLEDEPDVPERAGGAGFGTDGDDQEAINEAISVKQEVTDMNYPSNKS
Km: 80 µM

Source: ChEMBL document CHEMBL1773060, “Two-step synthesis of novel, bioactive derivatives of the ubiquitous cofactor nicotinamide adenine dinucleotide (NAD)” (J Med Chem, 2011)
